Measured values as given in PMC7641761.

What was measured:
[1] = target: Ku70/Ku80 heterodimer FL (baculovirus) (human) (UniProt P12956+P13010); experiment: MST; conditions: 1 mM DTT, 24 C, 40 nM FAM-RNA, EMSA: 25 mM Hepes-KOH pH 7.5, 50 mM NaCl, 1 mM EDTA, 10% glycerol, 0.1 uM BSA …
[2] = target: Ku5D T305D;S306D;T307D;S314D;T316D (human) (UniProt P12956+P13010); experiment: MST; conditions: MST: 50 mM Tris pH 8.0, 50 mM NaCl, 1 mM DTT, 24 C, 40 nM FAM-RNA, EMSA: 25 mM Hepes-KOH pH 7.5, 50 mM NaCl, 1 mM EDTA, 10% glycerol, 0.1 uM BSA …
Chain of Ku5D T305D;S306D;T307D;S314D;T316D (human) (P12956 whole entry T305D/S306D/T307D/S314D/T316D, chain 1 of 2): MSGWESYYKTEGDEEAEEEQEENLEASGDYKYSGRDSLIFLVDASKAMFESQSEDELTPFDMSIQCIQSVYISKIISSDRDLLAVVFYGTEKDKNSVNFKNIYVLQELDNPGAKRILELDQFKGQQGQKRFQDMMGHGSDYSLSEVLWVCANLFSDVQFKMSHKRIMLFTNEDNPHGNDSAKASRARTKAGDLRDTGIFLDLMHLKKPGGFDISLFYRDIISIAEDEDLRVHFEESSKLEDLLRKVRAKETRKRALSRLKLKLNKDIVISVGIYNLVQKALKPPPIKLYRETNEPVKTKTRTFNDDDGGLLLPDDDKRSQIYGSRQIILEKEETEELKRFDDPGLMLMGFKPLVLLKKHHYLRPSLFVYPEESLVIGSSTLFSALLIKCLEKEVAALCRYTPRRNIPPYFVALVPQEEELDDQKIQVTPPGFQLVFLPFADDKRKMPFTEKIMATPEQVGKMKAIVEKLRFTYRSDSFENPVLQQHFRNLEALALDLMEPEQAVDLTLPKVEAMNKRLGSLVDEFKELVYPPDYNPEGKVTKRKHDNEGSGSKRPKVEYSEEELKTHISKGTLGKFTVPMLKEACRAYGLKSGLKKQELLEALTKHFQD
Chain of Ku5D T305D;S306D;T307D;S314D;T316D (human) (P13010 1-718, chain 2 of 2): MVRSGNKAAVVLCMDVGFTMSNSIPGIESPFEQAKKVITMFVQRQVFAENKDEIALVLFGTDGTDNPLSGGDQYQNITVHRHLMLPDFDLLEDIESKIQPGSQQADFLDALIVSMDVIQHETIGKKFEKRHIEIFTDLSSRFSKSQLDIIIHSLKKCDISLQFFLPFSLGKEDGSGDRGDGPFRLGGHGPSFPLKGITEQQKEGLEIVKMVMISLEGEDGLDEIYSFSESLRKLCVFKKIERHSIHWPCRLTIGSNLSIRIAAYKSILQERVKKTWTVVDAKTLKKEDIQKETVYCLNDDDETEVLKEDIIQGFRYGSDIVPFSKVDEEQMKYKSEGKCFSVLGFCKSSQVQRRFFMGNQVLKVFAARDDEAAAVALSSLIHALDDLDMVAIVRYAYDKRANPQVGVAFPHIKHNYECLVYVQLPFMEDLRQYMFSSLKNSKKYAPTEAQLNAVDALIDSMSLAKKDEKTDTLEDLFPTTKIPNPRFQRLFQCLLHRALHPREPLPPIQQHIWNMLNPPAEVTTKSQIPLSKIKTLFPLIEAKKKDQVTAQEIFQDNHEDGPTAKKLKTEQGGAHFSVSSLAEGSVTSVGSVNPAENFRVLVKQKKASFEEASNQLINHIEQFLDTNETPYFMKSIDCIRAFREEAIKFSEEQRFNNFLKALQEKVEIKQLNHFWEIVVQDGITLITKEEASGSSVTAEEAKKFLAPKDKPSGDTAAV

[3] = MST: 50 mM Tris pH 8.0, 50 mM NaCl

Chain of Ku70/Ku80 heterodimer FL (baculovirus) (human) (P12956 whole entry, chain 1 of 2): as the sequence (P12956 whole entry T305D/S306D/T307D/S314D/T316D, chain 1 of 2) above, with D305T, D306S, D307T, D314S, D316T counted along it
Chain of Ku70/Ku80 heterodimer FL (baculovirus) (human) (P13010 1-718, chain 2 of 2): as the sequence (P13010 1-718, chain 2 of 2) above

Substance | Kd ([1]; Hill 1.0, MST: 50 mM Tris pH 8.0, 50 mM NaCl) | binding signal (fold better than WT) [2] | Kd [1, 3]
FL LINP1 | 0.74 µM | 2 | 
LINP1 SL2 + SL3 |  |  | 0.7 µM
polyA |  |  | 4.8 µM
polyC |  |  | 1.29 µM
polyU |  |  | 1.4 µM
